Reference: US20170067069A1 (SYNTHETIC GENOMICS, published 2017)

T1: SKP1-8611 (Nannochloropsis Skp1 protein) (Nannochloropsis gaditana)
T1 construct: also called SKP-8611
T1 chain: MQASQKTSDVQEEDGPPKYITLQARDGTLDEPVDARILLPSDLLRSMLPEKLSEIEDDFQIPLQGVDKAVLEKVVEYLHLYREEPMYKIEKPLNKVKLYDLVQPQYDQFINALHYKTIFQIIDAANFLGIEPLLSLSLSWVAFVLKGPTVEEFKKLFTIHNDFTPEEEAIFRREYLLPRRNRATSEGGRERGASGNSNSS

T2: Skp1-7479 (Nannochloropsis Skp1 protein, genome locus Naga_100005 g56) (Nannochloropsis gaditana)
T2 construct: also called SKP-7479
T2 chain: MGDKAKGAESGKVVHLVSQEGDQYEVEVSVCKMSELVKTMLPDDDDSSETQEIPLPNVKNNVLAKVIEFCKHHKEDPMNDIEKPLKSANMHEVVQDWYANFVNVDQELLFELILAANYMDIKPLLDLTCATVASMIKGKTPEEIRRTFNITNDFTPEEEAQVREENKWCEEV

B1: SGT1 (suppressor of G2 allele of skp1), Nannochloropsis gaditana, genome locus Naga_100120 g12 (other)
chain: MEQAQLAFMDEDYATADELFSAYIATHPDDATALVSRAAVHLKLNQPSQALHDAEAAASLKSDFEVAWYRQGVAAFALEDFSRAKEAFMRGRALLGDRPEPQGRRYDVWLRKTTLELGEHDEQGMTVVAEGGRKELRQEEGAKGIEATVPRSQPSPTHPPSSAPAIPAGHVKFQFYQTTSYVTVTILYKGLREEDANVSVQPRHLKVSVGADGDVLFDRALFETVVPEESTSKIFATKIEVKLRKAMEGLTWPELCALSPGAAASVHTVSAPTPDSHATALPSLAQGPATAPSSKPLRPYASTKDWGAVEKEISKELESEKPEGDEALNTLFRDIYAKGSDETRRAMVKSFQTSGGTVLSTNWEEVGKKDYEKEEERKAPEGMEWRKWGV
notes: also called Nannochloropsis SGT1; gene 1852

What was measured:
[1] = molecular target: B1; assay: yeast two-hybrid screen, CRD1-117 bait against Nannochloropsis cDNA prey library; growth and blue color on selective media
Protocol: The prey library was screened for by mating of the library-containing (prey) strain with each individual bait strain (i.e., a strain expressing CRD1-117) according to the Matchmaker™ Gold Yeast Two-Hybrid System User Manual (Clontech). […] Based on these numbers, it is estimated that more than 10 million interactions were tested.
After subtraction of false positives from the other domain hits, one hit remained which was unique to this domain: the gene encoding SGT1 (SEQ ID NO:27) encoded at N. gaditana genome locus Naga_100120 g12; Genbank Accession AZIL01000354.1. This gene is commonly referred to as “suppressor of G2 allele of skp1” because it was discovered in a genetic suppressor screen aimed at suppressing skp1-4, a mutant with defects in yeast kinetochore function (Hieter et al. 1999 Nature 402:362-363). SGT1 is an essential component of the yeast kinetochore assembly pathway and has been associated to a number of different biological roles in different organisms. Furthermore, mammalian SGT1 is known to interact with an Hsp90 chaperone and melusin, the human homolog of CHORD-3266. Similarly, the Arabidopsis CHORD-3266 homolog, RAR1, is also known to bind Arabidopsis SGT1 (Takahashi et al. (2003) PNAS USA 100:11777-11782). […]

[2] = molecular target: T1, SKP1-8611 (Nannochloropsis Skp1 protein); assay: direct yeast two-hybrid assay
Text: (§1) In order to determine whether SGT1 (SEQ ID NO:27) and Skp1 were members of the same pathway, we tested whether Nannochloropsis SGT1 was capable of binding to Nannochloropsis Skp1 by Y2H. Two different Skp1 proteins were identified in Nannochloropsis, SKP1-8611 (polynucleotide SEQ ID NO:9 and polypeptide SEQ ID NO:28) and Skp1-7479 (SEQ ID NO:29 encoded at N. gaditana genome locus Naga_100005 g56, Genbank Accession AZIL01000936). Protein coding sequences were amplified using sequence specific primers for SGT1 (SEQ ID NO:30 and SEQ ID NO:31), SKP-8611 (SEQ ID NO:32 and SEQ ID NO:33), and SKP-7479 (SEQ ID NO:34 and SEQ ID NO:35) and cloned into the prey and bait vectors as described above.

[3] = molecular target: T2, Skp1-7479 (Nannochloropsis Skp1 …); assay: direct yeast two-hybrid assay
Text: as §1

binding result [1]	binding result [2]	binding result [3]	Binder
binds	–	–	CRD1-117 (fragment of CHORD-3266 protein, amino acids 1-117) (other, Used as bait in the yeast two-hybrid screen, cloned into bait vector pGBKT7 (Clontech); also called CHORD domain fragment 1-117) MKLYVHYEEAGQDEKALTLKLTLPKSWAEQPLLQVLELFIESYNKKKTGLPPLDKDFVHMEKAGGVILPVGNIVSDMLSDRDDLYIRSGPGPARGKIAHLSSPPNAHASSESSTGLL
–	binds	binds	B1
